Assay results: patent US11733246B2, “Compositions, imaging, and therapeutic methods targeting folate receptor 1 (FOLR1)” (Indi Molecular, Inc., priority 2020, dated 2023)
Numbered stars: 1 amine (or outer) side, 2 acyl side, 3 side chain; on linkers, the order of the positions; unused ones are H or OH. Bridge positions count the residues as written; N and C are the ends. Square brackets hold non-standard residues; d marks the D form. Triazole bridges read from a SMILES are 1,4-linked. Peptide text beside a SMILES is read from it. * marks the point of attachment. DOTA = O=C(O)CN1CCN(CC(=O)O)CCN(CC(=O)*)CCN(CC(=O)O)CC1; Pteroyl = Nc1nc2ncc(CNc3ccc(C(=O)*)cc3)nc2c(=O)[nH]1; Butanoyl(4-(4-I-phenyl)) = O=C(CCCc1ccc(I)cc1)*; Butanoyl(4-(4-MePh)) = Cc1ccc(CCCC(=O)*)cc1; Lys(N3) = [N-]=[N+]=NCCCC[C@H](N)C(=O)O; γGlu = O=C(O)[C@H](CCC(=O)[*:2])N[*:1]; X3 = O=C(CO/N=C/c1ccc(F)cc1)*; AEEEA = NCCOCCOCCOCC(=O)O; Pra = C#CC[C@H](N)C(=O)O

What was measured:
Plasma stability, human = conditions: Hu, 2 μM, 37° C.
Method: Plasma was thawed in a 37° C. water bath. Residual clots were removed via centrifugation at 4000 rpm for 5 minutes. The pH of the plasma was adjusted to 7.4 if required. Test articles were diluted to 100 μM by diluting a 1 mM working solution (in DMSO) with 45% methanol in water. To 98 μL of plasma was added 2 μL of the 100 μM solution, resulting in 2 μM final concentration of the test article. Samples were incubated at 37° C. in a water bath. At the indicated time points (0, 10, 30, 60, 120 minutes) 100 μL of 4% H3PO4 was added followed by 800 μL of stop solution (200 ng/mL tolbutamide and 200 ng/mL labetalol in 100% acetonitrile). The samples were centrifuged and the plasma protein-free supernatant (100 μL) was subjected to LC-MS/MS analysis.

[1] = Plasma protein binding (equilibrium dialysis), mouse; type: in vitro ADME, CD-1 mouse
Method: (§1) HTD 96 a/b regenerated cellulose membrane strips with mass cutoff of 12-14 kDa were soaked in ultra-pure water at room temperature for 1 hour. Each swelled membrane was then soaked in 20:80 ethanol:water for 20 minutes.
(§2) Just prior to the experiment, the membranes were re-soaked in ultra-pure water. Plasma was prepared by thawing under cold water. The plasma was centrifuged to remove any clots and pH was adjusted to 7.0-8.0. Test articles and control compounds were diluted to 2 μM. The dialysis device was loaded by transferring 150 μL of the test article (in triplicate) to the donor side. The dialysis device was placed in a humidified incubator at 37° C. with 5% CO2 in a shaking platform that rotated slowly for 4 hours. After incubation, 50 μL of the supernatant was taken from both sides and analyzed by LC-MS/MS.
(§3) To optimize the albumin binding potential of the heterobiligand, a plasma protein binding (PPB) experiment was performed. This experiment measured the amount of test article bound and free after equilibrating with plasma. Compound #6305 (folate-hshta-Lys(MPBA)-Gly-Phe-Lys(DOTA) (SEQ ID NO:6)), which contains the MPBA albumin binder, was 96.26% bound to mouse plasma and 98.34% bound to human plasma. […] In mouse and human plasmas 99.6% and 99.5% was bound, respectively.

[2] = Plasma protein binding (equilibrium dialysis), human; type: in vitro ADME
Method: as §1, §2, §3

Plasma stability, mouse = conditions: Mu, 2 μM, 37° C.
[3] = system: OVCAR3 (FOLR1+) tumor bearing NSG mice; test: in vivo; conditions: mouse
Method: Female, 7-week-old NSG mice were housed under pathogen-free conditions. Water and food were provided ad libitum. To create mice with FOLR1+ ovarian xenograft tumors, mice were injected subcutaneously with OVCAR3 cells (1×10^7 cells per mouse) resuspended in 50% Matrigel in PBS into the shoulder region. Tumor growth was monitored by caliper measurements. OVCAR3 is a human ovarian adenocarcinoma known to over-express FOLR1.
^68Ga PET imaging was used to study in vivo biodistribution of heterobiligands in non-tumor bearing (healthy) mice and OVCAR3 tumor bearing mice. 100-200 μCi of [^68Ga]DOTA-labeled heterobiligand was administered intravenously (i.v.) via the tail vein of each mouse. Dynamic PET imaging was performed from 0-1 h, followed by acquisition of static PET images at 2 h and 4 h post-injection. CT scans were acquired for anatomical reference. Imaging was performed on an Inveon microPET/CT small animal scanner. The PET signal was quantitated by three-dimensional ROI analysis and represented as percent injected dose (% ID) vs. time ([…]) for major organs including tumor, liver, heart, lung, bladder, and kidney.
Evaluation of a folate-hshta (SEQ ID NO:6) Nterm heterobiligand bearing both an albumin binder and DOTA chelator in PET was a priority, given that DOTA can accommodate both ^68Ga for imaging and ^177Lu for radiotherapy. A 200 μCi dose of ^68Ga-labeled folate-hshta-PEG3-Lys(MPBA)-Lys(DOTA) (SEQ ID NO:6) (compound #2809) was injected i.v. via tail vein in an NSG mouse bearing s.c. human OVCAR3 (FOLR1+) tumor. ^68Ga PET/CT imaging scans were performed at 0-1 h (dynamic), 2 h (static), and 4 h (static). […] The time-course biodistribution of ^68Ga-labeled folate-hshta-PEG3-Lys(MPBA)-Lys(DOTA) (SEQ ID NO:6) (compound #2809) was calculated to quantify the uptake in major organs including the tumor (FIG. 17). […] Larger tumors (490 mm^3) were also evaluated with the ^68Ga-chelated PET probe.
Images were captured for compound #1307 at the time points 5 min, 10 min, 15 min, 30 min, 1 h, 2 h, and 4 h. PET/CT images were taken following the injection of 4 female NSG mice with ^68Ga-chelated compound #2809. […] Images for mouse 4 are shown in FIG. 23 (Compounds #1307 and #2809) and FIG. 24 (Compound #1307).
Biodistribution was initially evaluated by PET imaging, as the time frame for a significant portion of clearance is roughly similar to the time frame of PET imaging experiments. Indi ^68Ga-7327 was injected via the tail vein into OVCAR3 (FOLR+) tumor implanted female NSG mice once the tumor size reached 200 mm^3, and microPET/CT scans were acquired at 5 min, 10 min, 15 min, 30 min, 1 h, 2 h, and 4 h post-injection. PET images were corrected for CT-based photon attenuation, detector normalization and radioisotope decay and converted to units of percent injected dose per cc (% ID/cc).

[4] = Maximum tolerated dose / tolerability study
Method: Animals were monitored for signs of toxicity and weighed twice weekly. […] The second and third doses were administered 21 days following the previous dose.
Two separate MTD experiments were undertaken. […] A second experiment interrogated lower doses.
Mouse body weight and behavior were monitored. […] The second and third doses were administered 21 days following the previous dose.

[5] = Gamma counting of tissue radioactivity; type: in vivo, mouse; conditions: for kidney radioactivity / liver radioactivity / tumor radioactivity: Day 28 post-injection
Excerpt: 7 days after Lu177-#6305 injection, the 29.6 MBq group lost 20% body weight. These mice were sacrificed. Tissues and plasma were collected for evaluation of radioactivity by gamma counting. The toxicity may have resulted from its accumulation in the kidneys and liver (FIG. 28). At study endpoint (Day 28 post-injection), plasma, tumors, kidneys, lungs, hearts, livers, and muscles from 9.25 MBq and 14.8 MBq treatment groups were collected for evaluation of radioactivity by gamma counting (FIG. 29).

OVCAR3 xenografts = test: 177Lu FOLR1 radioligand therapy in OVCAR3 xenograft model; type: in vivo, mouse; conditions: for body weight change: single dose
Method: Water and food were provided ad libitum. […] Tumor growth was monitored by caliper measurements.
OVCAR3 tumor bearing mice were used to study FOLR1-directed radioligand therapy (RLT) for treatment of ovarian cancer. Animals were administered a single dose of heterobiligand (vehicle control) or 111, 37, 18.5, 9.25, or 3.7 MBq [^177Lu]DOTA-labeled heterobiligand. Mice received the dose intravenously (i.v.) via the tail vein. To monitor the effect of the RLT, tumor size measurements were taken twice weekly and body weights were measured.
The engraftment was allowed to expand until palpable tumor sizes ranging in size from 218-384 mm^3 were detected. […] These observed effects were consistant with radiation overdosing. […] The best response was observed using 9.25 MBq Lu-177 Heterobiligand (compound #2809).
Single dose treatments at 18.5 MBq/nmol specific activity. OVCAR3 mouse model was used. 10^7 cell tumors were implanted in the mice one month before administration of ^177Lu-#6305. Five mice each were administered Cold #6305, 9.25 MBq Lu177-#6305, and 14.8 MBq Lu177-#6305, and two mice were administered 29.6 MBq Lu177-#6305. Tumor growth and body weight were then monitored.
Female NSG mice were implanted subcutaneously with OVCAR3 cells. Once tumors reached volumes of 200 mm^3, the animals were treated with 177-Lu 7327. Three treatment arms of 9.25 MBq, 14.8 MBq, and 29.6 MBq were studied.
Female NSG mice were implanted subcutaneously with human OVCAR3 (FOLR+) ovarian cancer cells. Once tumors reached volumes of 200 mm^3, the animals were treated with Indi ^177Lu-7327. One treatment arm of 74 MBq and a control group of 0 MBq were studied (FIGS. 41 and 38A). […] The second dose was administered 21 days following the first dose. Statistically significant differential between treated and control was reached 24 days post-injection (three days following the second dose) for the 74 MBq arm. P values (* for p≤0.05, ** for p≤0.01) were determined by ordinary one-way ANOVA with Tukey's multiple comparisons test.

[6] = 29.6 MBq group, Day 7 post-injection

C[C@H](O)[C@H]1NC(=O)[C@@H](Cc2c[nH]cn2)NC(=O)[C@@H](CO)NC(=O)[C@@H](Cc2c[nH]cn2)NC(=O)[C@@H](NC(=O)CC[C@H](NC(=O)c2ccc(NCc3cnc4nc(N)[nH]c(=O)c4n3)cc2)C(=O)O)Cc2cn(nn2)CCCC[C@@H](C(=O)NCCOCCOCCOCC(=O)N[C@@H](CCCCNC(=O)CO/N=C/c2ccc(F)cc2)C(N)=O)NC(=O)[C@@H](C)NC1=O [compound #2, Fol-hshta-PEG3-Lys(FB)] ({Pteroyl-γGlu}-[Pra][dH][dS][dH][dT][dA][Lys(N3)][AEEEA]K(X3)-NH2; triazole 1-7)
half-life (Plasma stability, human; Plasma Stability (t 1/2)): > 289 min
recovery [1]: 115%
fraction unbound ([1]; mouse, plasma): 0.798
recovery [2]: 85%
fraction unbound ([2]; human, plasma): 0.57
half-life (Plasma stability, mouse; mouse, Plasma Stability (t 1/2)): > 289 min

C[C@H](O)[C@H]1NC(=O)[C@@H](Cc2c[nH]cn2)NC(=O)[C@@H](CO)NC(=O)[C@@H](Cc2c[nH]cn2)NC(=O)[C@@H](NC(=O)CC[C@H](NC(=O)c2ccc(NCc3cnc4nc(N)[nH]c(=O)c4n3)cc2)C(=O)O)Cc2cn(nn2)CCCC[C@@H](C(=O)N[C@@H](CCCCNC(=O)CCCc2ccc(I)cc2)C(=O)NCC(=O)N[C@@H](Cc2ccccc2)C(=O)N[C@@H](CCCCNC(=O)CN2CCN(CC(=O)O)CCN(CC(=O)O)CCN(CC(=O)O)CC2)C(=O)O)NC(=O)[C@@H](C)NC1=O [^68Ga-chelated compound #1307, metal not drawn] ({Pteroyl-γGlu}-[Pra][dH][dS][dH][dT][dA][Lys(N3)]K(Butanoyl(4-(4-I-phenyl)))GFK(DOTA)-OH; triazole 1-7)
heart exposure compared to compound #2809 [3]: less than two-fold increase
kidney absorption [3]: very low kidney absorption
kidney dose compared to compound #2809 [3]: seven-fold reduction
lung accumulation compared to compound #2809 [3]: greater than three-fold increase

CC(C)[N+](C)(CCOC(=O)C1c2ccccc2Oc2ccccc21)C(C)C [Propantheline bromide, reference compound]
half-life at 2 μM (Plasma stability, human; pH 7.4, Plasma Stability (t 1/2)): 11.6 min
half-life at 2 μM (Plasma stability, mouse; CD-1, mouse, pH 7.4, Plasma Stability (t 1/2)): 44.8 min

Cc1ccc(CCCC(=O)NCCCC[C@H](NC(=O)[C@@H]2CCCCn3cc(nn3)C[C@H](NC(=O)CC[C@H](NC(=O)c3ccc(NCc4cnc5nc(N)[nH]c(=O)c5n4)cc3)C(=O)O)C(=O)N[C@H](Cc3c[nH]cn3)C(=O)N[C@H](CO)C(=O)N[C@H](Cc3c[nH]cn3)C(=O)N[C@H]([C@H](C)O)C(=O)N[C@H](C)C(=O)N2)C(=O)NCC(=O)N[C@@H](Cc2ccccc2)C(=O)N[C@@H](CCCCNC(=O)CN2CCN(CC(=O)O)CCN(CC(=O)O)CCN(CC(=O)O)CC2)C(=O)O)cc1 [^177Lu-#6305, metal not drawn] ({Pteroyl-γGlu}-[Pra][dH][dS][dH][dT][dA][Lys(N3)]K(Butanoyl(4-(4-MePh)))GFK(DOTA)-OH; triazole 1-7)
body weight ([4]; doses of 29.6, 37, 111 and 185 MBq, first dose): weight loss after the first dose
tolerability of second dose ([4]; second dose 7 days after the first (29.6-185 MBq)): not tolerated
tolerability of second dose ([4]; second dose administered 21 days (14.8-22.2 MBq)): not tolerated
body weight ([4]; single dose of 14.8, 18.5 and 22.2 MBq): only minimal loss in body weight
kidney radioactivity ([5]; 9.25 MBq group): 414 CPM/g
liver radioactivity ([5]; 9.25 MBq group): 685 CPM/g
tumor radioactivity ([5]; 9.25 MBq group): 33 CPM/g
liver/kidney ratio ([5]; 14.8 MBq group on Day 28): 1.94
kidney radioactivity ([5]; 14.8 MBq group): 653 CPM/g
liver radioactivity ([5]; 14.8 MBq group): 1,264 CPM/g
tumor radioactivity ([5]; 14.8 MBq group): 60 CPM/g
liver/kidney ratio ([5]; 29.6 MBq group on Day 7): 0.27
radioactivity in the kidney [5, 6]: 394,834 CPM/g
radioactivity in the liver [5, 6]: 107,374 CPM/g
radioactivity in the tumor [5, 6]: 42,674 CPM/g
tissue to tissue ratio at 672 h ([5]; mouse, tumor and kidney, total radioactivity, 14.8 MBq group, Day 28): 0.093
tissue to tissue ratio at 168 h ([5]; mouse, tumor and kidney, total radioactivity, 29.6 MBq group, Day 7): 0.108
body weight change (OVCAR3 xenografts; 9.25 MBq and 14.8 MBq): No significant body weight change
body weight loss (OVCAR3 xenografts; 29.6 MBq, 7 days after injection): 20%
body weight change (OVCAR3 xenografts; 29.6 MBq): substantial body weight decrease

C[C@H](O)[C@H]1NC(=O)[C@@H](Cc2cnc[nH]2)NC(=O)[C@@H](CO)NC(=O)[C@@H](Cc2cnc[nH]2)NC(=O)[C@@H](NC(=O)CC[C@H](NC(=O)c2ccc(NCc3cnc4nc(N)[nH]c(=O)c4n3)cc2)C(=O)O)Cc2cn(nn2)CCCC[C@@H](C(=O)NCC(=O)N[C@@H](Cc2ccccc2)C(=O)N[C@@H](CCCCNC(=O)CN2CCN(CC(=O)O)CCN(CC(=O)O)CCN(CC(=O)O)CC2)C(=O)O)NC(=O)[C@@H](C)NC1=O [Indi ^177Lu-7327, Folate-hshta-G-F-K(^177Lu-DOTA)-OH, metal not drawn] ({Pteroyl-γGlu}-[Pra][dH][dS][dH][dT][dA][Lys(N3)]GFK(DOTA)-OH; triazole 1-7)
radioactive dose tolerated, three treatments ([4]; healthy, non-tumor bearing female NSG mice): up to 111 MBq
loss of body weight (OVCAR3 xenografts; 29.6 MBq, after second dose): 5-10%
body weight (OVCAR3 xenografts; highest dose (29.6 MBq), after second dose): modest loss of body weight
body weights of treated mice (OVCAR3 xenografts; mouse, in vivo): normal body weights (+/−10%)
tolerability of first dose (OVCAR3 xenografts; mouse, in vivo): well tolerated
